Measured values reported in patent US20190211317A1, “PEPTIDES AND NANOPARTICLES FOR INTRACELLULAR DELIVERY OF GENOME-EDITING MOLECULES” (Aadigen, LLC, priority 2016, published 2019).

Biological target: CY5-CAS9:sgRNA complex (1:1 molar ratio) (S. pyogenes) (UniProt Q99ZW2)
Test: fluorescence titration of 5 nM CY5-CAS9:sgRNA (1:1) with increasing peptide, quadratic fit

**Q.** How did the Kd turn out when CADY (peptide) was run?
**A.** Its Kd is 0.021 µM.
